Reference: the supplement of paper PMC7877785
± gives the uncertainty stated by the source.

Experiment: self-splicing fitness, log relative to wild type (ln ratio); higher = more splicing; Tetrahymena group I intron in knt gene, E. coli kanamycin selection, DiMSum; sequences stand for … in CUCUCU…GGAGGGAAAAGUUAUCAGGCAUGCACCUGGUAGCUAGUCUUUAAACCAAUAGAUUGCAUCGGUUUAAAAGGCAAGACCGUCAAAUUGCGGGAAAGGGGUCAACAGCCGUUCAGUACCAAGUCUCAGGGGAAACUUUGAGAUGGCCUUGCAAAGGGUAUGGUAAUAAGCUGACGGACAUGGUCCUAACCACGCAGCCAAGUCCUAAGUCAACAGAUCUUCUGUUGAUAUGGAUGCAGUUCACAGACUAAAUGUCGGUCGGGGAAGAUGUAUUCUUCUCAUAAGAUAUAGUCGGACCUCUCCUUAAUGGGAGCUAGCGGAUGAAGUGAUGCAACACUGGAGCCGCUGGGAACUAAUUUGUAUGCGAAAGUAUAUUGAUUAGUUUUGGAGUACUCGUGGUCG
Procedure, shortened: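 Fitness was computed with DiMSum as the error-weighted combination of replicate fold changes, kanamycin versus none, each normalised to wild type. The library randomised all eight intron nucleotides of the P1ex region, with the intron placed in the knt kanamycin-resistance gene on pET-22b(+) in E. coli BL21(DE3). Six replicate transformations were grown overnight at 37°C or 30°C on LB agar with or without 25 μg/mL kanamycin, plus 100 μg/mL carbenicillin, 50 μM IPTG and 0.2% rhamnose. Pooled colonies were amplicon-sequenced on an Illumina HiSeq 2500.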

Sequence	self-splicing fitness (ln) (30 °C)	self-splicing fitness (ln) (37 °C)
CCUCAGCAAUAUUACGGUGG	-4.11 ± 0.16	-2.41 ± 0.16
GUUAAGCAAUAUUACGUAGU	-2.06 ± 0.16	-0.895 ± 0.14
AUUCAGCAAUAUUACGAGCU	-1.21 ± 0.14	-0.997 ± 0.17
UUGUAGCAAUAUUACGUGCA	-2.4 ± 0.15	-1.14 ± 0.18
AUACAGCAAUAUUACGCGUC	-3.72 ± 0.14	-2.6 ± 0.13
AAAUAGCAAUAUUACGGUAC	-3.61 ± 0.25	-2.6 ± 0.3
AGCAAGCAAUAUUACGGCGA	-0.386 ± 0.094	-0.039 ± 0.11
UGUCAGCAAUAUUACGUGCC	-0.825 ± 0.12	-0.182 ± 0.14
CUGCAGCAAUAUUACGUUCU	-2.88 ± 0.21	-1.88 ± 0.2
GAUCAGCAAUAUUACGACCU	-0.708 ± 0.089	-0.346 ± 0.1
UGGCAGCAAUAUUACGGUUG	-1.46 ± 0.07	-1.04 ± 0.082
CUAUAGCAAUAUUACGUGGA	-2.83 ± 0.19	-2.4 ± 0.27
AGUUAGCAAUAUUACGUAUC	-3.63 ± 0.2	-2.25 ± 0.18
CCCCAGCAAUAUUACGCGGU	-3.91 ± 0.13	-2.17 ± 0.15
CGCGAGCAAUAUUACGAAUA	-2.84 ± 0.35	-2.25 ± 0.38
CAUCAGCAAUAUUACGAGGU	-3.46 ± 0.21	-2.86 ± 0.22
GUGGAGCAAUAUUACGUAGC	0.305 ± 0.33	–
CCUUAGCAAUAUUACGGGAA	-3.02 ± 0.18	-2.76 ± 0.19
GGAGAGCAAUAUUACGGGCU	-2.73 ± 0.27	–
CGAUAGCAAUAUUACGAUUG	-2.27 ± 0.12	-1.2 ± 0.12
AUCCAGCAAUAUUACGUUGG	-4.05 ± 0.18	-2.97 ± 0.16
UCCCAGCAAUAUUACGUUGG	-3.37 ± 0.12	-1.5 ± 0.13
GCUCAGCAAUAUUACGUGUC	-1.55 ± 0.078	-0.662 ± 0.081
UAGAAGCAAUAUUACGCACA	-0.416 ± 0.098	-0.144 ± 0.16
CCAUAGCAAUAUUACGAGAC	-3.58 ± 0.3	-0.492 ± 0.17

Sequence	self-splicing fitness (ln) (30 °C)	self-splicing fitness (ln) (37 °C)
CGAGAGCAAUAUUACGCGCU	-2.04 ± 0.38	–
GAAAAGCAAUAUUACGACUC	0.143 ± 0.2	-0.00506 ± 0.28
UAUUAGCAAUAUUACGAUGU	-3.01 ± 0.23	-1.06 ± 0.15
UGUAAGCAAUAUUACGAUCU	0.361 ± 0.11	0.0759 ± 0.13
GGAAAGCAAUAUUACGUUGU	-4.15 ± 0.23	-2.19 ± 0.15
UGACAGCAAUAUUACGGAGA	-3.83 ± 0.29	-1.98 ± 0.15
UGGGAGCAAUAUUACGAGGA	–	-3.9 ± 0.47
UAUUAGCAAUAUUACGAUCA	-0.168 ± 0.11	-0.249 ± 0.14
UGGAAGCAAUAUUACGGGAG	-1.73 ± 0.37	-2.09 ± 0.25
UAGCAGCAAUAUUACGUAAU	-3.27 ± 0.12	-0.695 ± 0.089
CUAGAGCAAUAUUACGCGAU	-0.892 ± 0.084	-0.253 ± 0.11
CCGUAGCAAUAUUACGGCUU	-3.06 ± 0.35	-3.06 ± 0.43
CUCCAGCAAUAUUACGCUAC	-4.08 ± 0.29	-2.75 ± 0.23
UGGCAGCAAUAUUACGAAAU	-3.14 ± 0.29	-0.617 ± 0.19
AUCCAGCAAUAUUACGCGCG	-2 ± 0.074	-0.8 ± 0.1
GGAAAGCAAUAUUACGUAUC	-2.09 ± 0.18	-1.01 ± 0.15
UCCCAGCAAUAUUACGAGCC	-2.16 ± 0.28	-1.96 ± 0.31
GGGUAGCAAUAUUACGAAGA	-1.72 ± 0.21	-1.62 ± 0.21
CCGCAGCAAUAUUACGCAAU	-3.95 ± 0.18	-3.67 ± 0.27
CCUCAGCAAUAUUACGUUUU	-4.52 ± 0.27	-3.03 ± 0.17
GUGGAGCAAUAUUACGCGAA	-3 ± 0.39	-1.09 ± 0.27
CUAUAGCAAUAUUACGCUCU	-3.4 ± 0.29	-2.3 ± 0.34
CUCAAGCAAUAUUACGGAAA	-3.21 ± 0.28	-2.6 ± 0.25
UGGAAGCAAUAUUACGCCGU	-2.99 ± 0.48	-1.87 ± 0.44
AAAGAGCAAUAUUACGUAAU	-2.16 ± 0.15	0.0244 ± 0.13

Sequence	self-splicing fitness (ln) (30 °C)	self-splicing fitness (ln) (37 °C)
CUGAAGCAAUAUUACGGUUU	-3.24 ± 0.22	-2.72 ± 0.18
UGAUAGCAAUAUUACGGCAA	-1.36 ± 0.15	-0.418 ± 0.15
CCAGAGCAAUAUUACGUGGC	-1.95 ± 0.18	-3.77 ± 0.39
AUGUAGCAAUAUUACGCUUU	-3.23 ± 0.15	-1.29 ± 0.11
UGCAAGCAAUAUUACGAGGG	-3.56 ± 0.23	-1.77 ± 0.17
GACCAGCAAUAUUACGCAGC	-0.913 ± 0.11	-0.292 ± 0.13
GUGCAGCAAUAUUACGUCUC	-0.469 ± 0.084	0.48 ± 0.11
UCCUAGCAAUAUUACGGGAA	-1.84 ± 0.21	-1.76 ± 0.14
AGCUAGCAAUAUUACGGUUG	-1.95 ± 0.075	-1.37 ± 0.11
AUUAAGCAAUAUUACGAUAC	-1.93 ± 0.11	-0.885 ± 0.15
CCCAAGCAAUAUUACGCGUA	-3.43 ± 0.2	-1.29 ± 0.17
AGCCAGCAAUAUUACGAGAC	-3.57 ± 0.18	-2.61 ± 0.16
CGUCAGCAAUAUUACGGGUC	-4.23 ± 0.39	-2.73 ± 0.23
AUUAAGCAAUAUUACGGAAA	-2.98 ± 0.29	-1.77 ± 0.26
UUACAGCAAUAUUACGUAAU	-3.27 ± 0.26	-2.32 ± 0.19
AAACAGCAAUAUUACGACGA	-1.32 ± 0.096	0.0122 ± 0.099
UUGUAGCAAUAUUACGCCUU	-0.585 ± 0.17	0.0387 ± 0.17
GAGGAGCAAUAUUACGUUAU	-3.32 ± 0.23	-2.96 ± 0.32
CAAUAGCAAUAUUACGCCGA	-2.61 ± 0.26	-1.59 ± 0.17
UCGAAGCAAUAUUACGGUUC	-4.34 ± 0.34	-2.79 ± 0.32
AUCCAGCAAUAUUACGCUCU	0.335 ± 0.14	0.709 ± 0.15
UGGAAGCAAUAUUACGGGGU	-3.12 ± 0.31	-1.99 ± 0.35
GGCAAGCAAUAUUACGUCAC	-3.31 ± 0.22	-0.36 ± 0.17
CGAGAGCAAUAUUACGUCUG	-1.33 ± 0.24	-1.31 ± 0.17
CUGGAGCAAUAUUACGGGAU	-4.01 ± 0.37	-1.91 ± 0.28

Sequence	self-splicing fitness (ln) (30 °C)	self-splicing fitness (ln) (37 °C)
UGUCAGCAAUAUUACGUCCU	-0.0922 ± 0.06	-0.325 ± 0.073
GGCUAGCAAUAUUACGACUA	-0.758 ± 0.091	-0.454 ± 0.089
CGAAAGCAAUAUUACGUCUA	-0.692 ± 0.25	-0.962 ± 0.17
AUUGAGCAAUAUUACGAGUU	-2.58 ± 0.14	-2.23 ± 0.17
CCAUAGCAAUAUUACGUGCC	–	-2.41 ± 0.41
AGCUAGCAAUAUUACGGGAU	-2.04 ± 0.11	-1.49 ± 0.13
UAAUAGCAAUAUUACGGUUC	-2.91 ± 0.29	–
AACAAGCAAUAUUACGCACA	0.157 ± 0.071	-0.163 ± 0.094
CGGGAGCAAUAUUACGCGCC	–	-1.51 ± 0.43
CACCAGCAAUAUUACGUCCC	-4.07 ± 0.31	-2.79 ± 0.32
UCCAAGCAAUAUUACGCCGG	-1.53 ± 0.11	-0.578 ± 0.14
CGUCAGCAAUAUUACGGGCU	-1.31 ± 0.078	-0.668 ± 0.082
AAAGAGCAAUAUUACGGGGA	-2.48 ± 0.35	-1.81 ± 0.28
GUCCAGCAAUAUUACGAUUC	-0.315 ± 0.055	0.0606 ± 0.075
GCUAAGCAAUAUUACGUCAG	-3.84 ± 0.28	-2.21 ± 0.22
AGAUAGCAAUAUUACGUCCU	0.545 ± 0.095	0.159 ± 0.1
CAAUAGCAAUAUUACGAUGG	-1.09 ± 0.074	-0.114 ± 0.096
AUGCAGCAAUAUUACGCCGU	-1.25 ± 0.069	-0.859 ± 0.083
GGGCAGCAAUAUUACGCAGA	-1.43 ± 0.095	-0.514 ± 0.1
GGCGAGCAAUAUUACGAUAC	-2.02 ± 0.37	-0.796 ± 0.35
GUAAAGCAAUAUUACGCCGA	-0.859 ± 0.11	-0.839 ± 0.14
GUUCAGCAAUAUUACGAUCC	-1.37 ± 0.12	-1.05 ± 0.14
